Experiment: label from the status in PepcDB records

| Sequence | protein production |
| --- | --- |
| EEIRKIPMFSSYNPGEPNKVLYLKNLSPRVTERDLVSLFARFQEKKGPPIQFRMMTGRMRGQAFITFPNKEIAWQALHLVNGYKLYGKILVIEFGKNKKQRS | not failed |
| EAKAKANTTRSLQALINLQPQQATVITEQGDQQITVEQITLGMKLRIKPGEKVPVDGVVIQGESYIDESMLTGEPVPVLKAQEAQVSAGTLNTDGALIIEATGIGANTMLARIIRMVRTAQSSKPAIAKLADQ | failed |
| MRRITVGPFNRVEGDLEVRLDIDDGVVVSAEVTAPLYRGFEQILEGRPSLDALTLAPRICGICSVSQSMAAVAALRAVDGLHPAPNGLHAANIAHAAENAADHLTHFYVFFMPDFARDSYAAWPWHPAVAERFTATRGTAAREVLPARARLLEIMGLIAGKWPHSLAFQPGGTTRAIGLGERVRLLSIIADFRGFLESIVFGDDLEAVLALRSAAALESWRDGRIGDFARFLAIADDLALDKLGRGATSLMSFGAYQGLEAPLFAAGLYDPATSTPRVLDIDAITEDVSHAWMRDTAAEPALAQTLPDADRPGGYSWCKAPRLDSRPIEVGALARQAVDGDALIRDLVRRHGPNVRTRVIARLLETARLALAMDRWARQIALDAPFLDAAARVGEGAGIGLVEAARGSLGHWIELSGDRIRRYQIIAPTTWNFSPRDADGVAGPLEQALVGTPVGAEGAASVAVQHVVRSFDPCMVCTAH | failed |
| MLDKGGGRGKLSSPERFREWTRKTMAKQDELVFVPLGGVGEIGMNLALYGYGPESKRQWIMVDCGVTFAGPDLPGVDLVLPDISYIAEQKKNLKGIIITHAHEDHYGAMNDLWPGLNVPVYASPFTAGMLEAKRAYEGTRAEIPVTIFKAGDRINVGPFEIEAVGVNHSIPEPMSLIIRTPLGNVIHTGDWKIDEAPSLGPLTDEARFRAIGEEGVLALMCDSTNALRDGVSPSEHEVSEGLRQIIESAEGRVAVTTFSSNVGRIRSIAQAAEAAGREVLLLGSSLKRVVNVSQDLGIMEGIKPFLAEDEYGYIPRDRVVVILTGSQGEPRAALAKLSRDEMRNVALASGDTVVFSSRAIPGNEKAIIEIKNGLIEQGVHIVTDNEALVHVSGHPRRNELLRMYEWTKPQILVPVHGEAAHLVAQKELAEQAGISQVPKVRNGNVLRLAPGPAEVINDVPHGRVFKDGNLVGDMDEMGISNRRKLSFAGHVAVNVVLDSRYDFLGDPDVVPFGLPEFDDEDEAMEDTLYDAVLGAVESIPRARRKDLALLRESVRRAVRAAANQSWGKKPIVTVFVTKV | failed |
| MAAAFASLPTFSVVNSSRFPRRRIGFSCSKKPLEVRCSSGNTRYTKQRGAFTSLKECAISLALSVGLMVSVPSIALPPNAHAVANPVIPDVSVLISGPPIKDPEALLRYALPIDNKAIREVQKPLEDITDSLKIAGVKALDSVERNVRQASRTLQQGKSIIVAGFAESKKDHGNEMIEKLEAGMQDMLKIVEDRKRDAVAPKQKEILKYVGGIEEDMVDGFPYEVPEEYRNMPLLKGRASVDMKVKIKDNPNIEDCVFRIVLDGYNAPVTAGNFVDLVERHFYDGMEIQRSDGFVVQTGDPEGPAEGFIDPSTEKTRTVPLEIMVTGEKTPFYGSTLEELGLYKAQVVIPFNAFGTMAMAREEFENDSGSSQVFWLLKESELTPSNSNILDGRYAVFGYVTDNEDFLADLKVGDVIESIQVVSGLENLANPSYKIAG | failed |
| MNSGRPETMENLPALYTIFQGEVAMVTDYGAFIKIPGCRKQGLVHRTHMSSCRVDKPSEIVDVGDKVWVKLIGREMKNDRIKVSLSMKVVNQGTGKDLDPNNVIIE | not failed |
| MKENDGAPLKEGETASKYSVIINMILVVIKGFTGYLSGNIALIADAIHSFADVFSSAAVFIGLKLSQRKPDELFPYGYHRIETLVSLLVSVLIIITGLEITWDSIIYILNPASEVSMATASLAVSLISIGVSYAIAFYKVRVGRRIGSTALLNDGKHSYVDVISSILVFLGILGEYMGLHGFQGIAGVIISVVIIYIGIRLAKYDVLTLLDACIDRDSIEVIKKTVLSVPGVEGVHDIRIRRSGPYLFGELHIELERGLPVDKIEGIISQINSRVKEVLPSIDHLTVQPETVKREEVVVAVPLADNHGMESRISTHFGRADSFLIARTRRGEILDYRIIENSGKSLRTKRGIRAAELLKDENIDVLVIEKLSEGPELLFSDYLLGKVPPEGSSLEEVIKNASMKFSE | failed |
| NDPDADRFAVAARKADGEYQMLTGDQVGSLFGHYLLSQTDAHRQLVGNTIVSSSLLSKIAAAHGARYYQTLTGFKWLTNVAMQEQTEQHQFLFAYEEALGYTIGSTVWDKDGLSALVAFAQLAAELNAQGKTVWDQLEALYRQHGLHVN | failed |
| MKRENIKTILLTVLVVISLVFTWGIWTFQPNFSEGSSSTESTVRVKHKIEKTTQKLSETVRPRDMFIHDDGAHYKVDDNALYEEIWSDLPHWDVKGIKDISDQYDKAGFKSWFYGIGGSEAKLDLQFSDTIPIDIFQTLFKWSNQSFEYSSFDHILIPFNETKANKKIYLVSYSKQLILEVTVESANYRNIMNDLKNRQSNMPAFSLFSIGSKKEFLLPNKPLTMDKKEFVTESIKTNTFKQALFSDPSIVREDSNYNNRNVLTDGISRLDVNLSQRQVQFQQRNLVQSTSYQTGELIKKSQKYLEDTGSWTDHYQFFNINDSQQLSFYIFMDQIPVINSTAKPFGATSAITVQWANDDILSYKRPNYSLGTNPIKTSETELMGGSEVKMLLSKQTAYDTDKIDQIFLAYQLVSTSTNDDPLVELEPVWAMKVNGKIVPITKDLLRKEGANSGVE | failed |
| MRHLPYPLLGLFLALSSTGAALAGEQYYPLDKGSAPYAVAPSAQGAVWYGADGGHSLGRLDPTSGESVQVPLGEGARPRAIVSDESGNAWVLDSGLNAILRIGGERLGSERFPLPAKAAPAGLESAVFDDDGRLWFTGSRGFHGRLDPARRLVEVWPSPQGKAANGICVTPDGEVWYAQDDALVHVDPLDGSAERLPAPEGTKALRGIGADSIGRLWASDSGGARLYRYDPSDASWQSWPLPDSQARPDSLRVDAMDRVWLHDAASGALLRFDSEQATFRVLPSDRPAPGNALLGGRPGETWSAEPAADRLRVVRD | failed |
| MEDDCEELQVPVGTLTSIGFSISNNNDRDKMSVLEVEAPNQVTDSRLGLPNPDSVCRTCGSKDRKVCEGHFGVINFAYSIINPYFLKEVAALLNKICPGCKYIRKKQFQITEDQPERCRYCTLNTGYPLMKFRVTTKEVFRRSGIVVEVNEESLMKLKKRGVLTLPPDYWSFLPQDSNIDESCLKPTRRIITHAQVYALLLGIDQRLIKKDIPMFNSLGLTSFPVTPNGYRVTEIVHQFNGARLIFDERTRIYKKLVGFEGNTLELSSRVMECMQYSRLFSETVSSSKDSANPYQKKSDTPKLCGLRFMKDVLLGKRSDHTFRTVVVGDPSLKLNEIGIPESIAKRLQVSEHLNQCNKERLVTSFVPTLLDNKEMHVRRGDRLVAIQVNDLQTGDKIFRSLMDGDTVLMNRPPSIHQHSLIAMTVRILPTTSVVSLNPICCLPFRGDFDGDCLHGYVPQSIQAKVELDELVALDKQLINRQNGRNLLSLGQDSLTAAYLVNVEKNCYLNRAQMQQLQMYCPFQLPPPAIIKASPSSTEPQWTGMQLFGMLFPPGFDYTYPLNNVVVSNGELLSFSEGSAWLRDGEGNFIERLLKHDKGKVLDIIYSAQEMLSQWLLMRGLSVSLADLYLSSDLQSRKNLTEEISYGLREAEQVCNKQQLMVESWRDFLAVNGEDKEEDSVSDLARFCYERQKSATLSELAVSAFKDAYRDVQALAYRYGDQSNSFLIMSKAGSKGNIGKLVQHSMCIGLQNSAVSLSFGFPRELTCAAWNDPNSPLRGAKGKDSTTTESYVPYGVIENSFLTGLNPLESFVHSVTSRDSSFSGNADLPGTLSRRLMFFMRDIYAAYDGTVRNSFGNQLVQFTYETDGPVEDITGEALGSLSACALSEAAYSALDQPISLLETSPLLNLKNVLECGSKKGQREQTMSLYLSEYLSKKKHGFEYGSLEIKNHLEKLSFSEIVSTSMIIFSPSSNTKVPLSPWVCHFHISEKVLKRKQLSAESVVSSLNEQYKSRNRELKLDIVDLDIQNTNHCSSDDQAMKDDNVCITVTVVEASKHSVLELDAIRLVLIPFLLDSPVKGDQGIKKVNILWTDRPKAPKRNGNHLAGELYLKVTMYGDRGKRNCWTALLETCLPIMDMIDWGRSHPDNIRQCCSVYGIDAGRSIFVANLESAVSDTGKEILREHLLLVADSLSVTGEFVALNAKGWSKQRQVESTPAPFTQACFSSPSQCFLKAAKEGVRDDLQGSIDALAWGKVPGFGTGDQFEIIISPKVHGFTTPVDVYDLLSSTKTMRRTNSAPKSDKATVQPFGLLHSAFLKDIKVLDGKGIPMSLLRTIFTWKNIELLSQSLKRILHSYEINELLNERDEGLVKMVLQLHPNSVEKIGPGVKGIRVAKSKHGDSCCFEVVRIDGTFEDFSYHKCVLGATKIIAPKKMNFYKSKYLKNGTLESGGFSENP | failed |
